Measured values taken from patent publication US20030108991.

Biological target: T1, N-Succinyl-Ala-Ala-Pro-Phe-p-nitroanilide
T1 chain: AAPF

B1: soluble keratinase (Bacillus licheniformis PWD-1 keratinase) (protein)
chain: AQTVPYGIPLIKADKVQAQGFKGANVKVAVLDTGIQASHPDLNVVGGASFVAGEAYNTDGNGHGTHVAGTVAALDNTTGVLGVAPSVSLYAVKVLNSSGSGSYSGIVSGIEWATTNGMDVINMSLGGASGSTAMKQAVDNAYARGVVVVAAAGNSGSSGNTNTIGYPAKYDSVIAVGAVDSNSNRASFSSVGAELEVMAPGAGVYSTYPTNTYATLNGTSMVSPHVAGAAALILSKHPNLSASQVRNRLSSTATYLGSSFYYGKGLINVEAAAQ
- Km: 220 µM
